The values that follow come from patent publication US20180245067A1 (UNIVERSITY OF LEEDS, published 2018).

By Kd is commonly meant the free concentration of one partner at which half of the binding sites on the other are occupied at equilibrium, for simple one-to-one binding. Read a low Kd as tighter binding. For orientation: kon means the second-order rate constant of association. Low readings indicate slow association, high ones fast association.

Test [1] concerns the target T1, yeast Small Ubiquitin-like Modifier protein (SUMO) (yeast, UniProt Q12306 1-98 = SUMO).
T1 construct: also called ySUMO; yeast SUMO
The test is described as follows: phage ELISA on biotinylated ySUMO. In general terms: In an ELISA, binding on a coated surface is turned into a signal by an enzyme label.

Test [2] addresses T2, papain (UniProt P00784 134-345).
T2 sequence (looked up): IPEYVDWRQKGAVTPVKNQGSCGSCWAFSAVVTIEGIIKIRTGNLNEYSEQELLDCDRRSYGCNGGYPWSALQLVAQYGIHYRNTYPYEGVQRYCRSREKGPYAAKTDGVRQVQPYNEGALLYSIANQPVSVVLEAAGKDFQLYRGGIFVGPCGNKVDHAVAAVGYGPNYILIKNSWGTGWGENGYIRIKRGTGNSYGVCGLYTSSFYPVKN
The test is described as follows: SPR (BIACORE 3000), cystatin on NTA chip via His tag, papain as analyte, 1:1 Langmuir fit. A general note: SPR reads the build-up and loss of mass on a sensor chip optically.

Test [3] deals with T1, yeast Small Ubiquitin-like Modifier …. Description: BioLayer Interferometry (BLitz), biotinylated Adhiron on streptavidin biosensor, global fit. Background: In BLI a coated tip is dipped into the sample, and binding shifts an interference pattern.
Test [4] addresses T3, human SUMO1 (human, UniProt P63165 1-97).
T3 construct: also called hSUMO1
The test is described as follows: ELISA and Western blot with biotinylated Adhiron.

Test [5] has as its target T2, papain. Description: cell-based or functional assay.

T1 sequence (Q12306 1-98 limits assumed): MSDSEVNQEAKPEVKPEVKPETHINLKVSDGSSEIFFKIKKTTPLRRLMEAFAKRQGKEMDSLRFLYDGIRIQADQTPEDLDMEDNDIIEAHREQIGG
T3 sequence (P63165 1-97 limits assumed): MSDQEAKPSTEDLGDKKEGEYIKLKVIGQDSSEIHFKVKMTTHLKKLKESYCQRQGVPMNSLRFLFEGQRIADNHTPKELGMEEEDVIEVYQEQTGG

B1: Ad-ySUMO 19 (designed binder)
chain: NSLEIEELARFAVDEHNKKENALLEFVRVVKAKEQWSEADNDWHTMYYLTLEAKDGGKKKLYEAKVWVKLDLETWQHFNFKELQEFKPVGDA
notes: also called clone 19
Take B1: the binding result in test [1] is reported as “binds”.

B2: Ad-ySUMO 17 (designed binder)
chain: NSLEIEELARFAVDEHNKKENALLEFVRVVKAKEQWYLLDVMDDTMYYLTLEAKDGGKKKLYEAKVWVKHDRRYKQAENFKELQEFKPVGDA
notes: also called clone 17
As to B2, the binding result in test [1] was “binds”.

B3: Ad-ySUMO 24 (designed binder)
chain: NSLEIEELARFAVDEHNKKENALLEFVRVVKAKEQWEDFQTHWETMYYLTLEAKDGGKKKLYEAKVWVKDVGQLLSGINFKELQEFKPVGDA
notes: also called clone 24
For B3, the binding result in test [1] is on record as “binds”.

B4: CEWC (other, chicken)
chain: SEDRSRLLGAPVPVDENDEGLQRALQFAMAEYNRASNDKYSSRVVRVISAKRQLVSGIKYILQVEIGRTTCPKSSGDLQSCEFHDEPEMAKYTTCTFVVYSIPWLNQIKLLESKCQRGSHHHHHH
notes: also called chicken egg white cystatin
In test [2], B4 had a Ka of 2.6e+09 M⁻¹, a dissociation constant Kd of 0.39 nM and an association rate constant (kon) of 1.3e+06 M⁻¹ s⁻¹.

B5: Ad-ySUMO 3 (designed binder)
chain: NSLEIEELARFAVDEHNKKENALLEFVRVVKAKEQINLMMVSPMTMYYLTLEAKDGGKKKLYEAKVWVKGIQQNPSHANFKELQEFKPVGDA
notes: also called clone 3
Take B5: the binding result in test [1] is recorded as “binds”.

B6: Ad-ySUMO 23 (designed binder)
chain: NSLEIEELARFAVDEHNKKENALLEFVRVVKAKEQIDLTQPHDSTMYYLTLEAKDGGKKKLYEAKVWVKPHDELNWNMNFKELQEFKPVGDA
notes: also called clone 23
Turning to B6, the binding result in test [1] is “binds”.

B7: Ad-ySUMO 22 (designed binder)
chain: NSLEIEELARFAVDEHNKKENALLEFVRVVKAKEQIDLTQSFDMTMYYLTLEAKDGGKKKLYEAKVWVKPIDSNFTGTNFKELQEFKPVGDA
notes: also called clone 22
In test [3], B7 had an equilibrium dissociation constant (Kd) of 9 nM. In addition, in test [4], the binding result is “no binding”.

B8: Ad-ySUMO 15 (designed binder)
chain: NSLEIEELARFAVDEHNKKENALLEFVRVVKAKEQIDLTQPHDSTMYYLTLEAKDGGKKKLYEAKVWVKYEEDEYWRMNFKELQEFKPVGDA
notes: also called clone 15; Yeast Sumo Adhiron 15
As to B8, in test [3], the Kd came out at 2.4 nM. Also, the binding result in test [4] is listed as “no binding”.

B9: Ad-ySUMO 2 (designed binder)
chain: NSLEIEELARFAVDEHNKKENALLEFVRVVKAKEQIDLTNSFASTMYYLTLEAKDGGKKKLYEAKVWVKDINQYWHSMNFKELQEFKPVGDA
notes: also called clone 2
In the case of B9, the binding result in test [1] is reported as “binds”.

B10: Ad-ySUMO 20 (designed binder)
chain: NSLEIEELARFAVDEHNKKENALLEFVRVVKAKEQIDLTGQWLFTMYYLTLEAKDGGKKKLYEAKVWVKPLWQYDAQYNFKELQEFKPVGDA
notes: also called clone 20
As for B10, binding in test [3] was put at a Kd of 14.2 nM. Also, the binding result in test [4] was “no binding”.

B11: Ad-ySUMO 10 (designed binder)
chain: NSLEIEELARFAVDEHNKKENALLEFVRVVKAKEQIIIHENDADTMYYLTLEAKDGGKKKLYEAKVWVKGIMDGLNKYNFKELQEFKPVGDA
notes: also called clone 10
B11 had an equilibrium dissociation constant (Kd) in test [3] of 11.5 nM. For the same molecule, the binding result in test [4] is listed as “no binding”.

B12: Ad-ySUMO 1 (designed binder)
chain: NSLEIEELARFAVDEHNKKENALLEFVRVVKAKEQWDLTGNVDTTMYYLTLEAKDGGKKKLYEAKVWVKWDDWGERFWNFKELQEFKPVGDA
notes: also called clone 1
In the case of B12, the binding result in test [1] is given as “binds”.

B13: Ad-ySUMO 14 (designed binder)
chain: NSLEIEELARFAVDEHNKKENALLEFVRVVKAKEQWFDDEYDWITMYYLTLEAKDGGKKKLYEAKVWVKDYAATDLYWNFKELQEFKPVGDA
notes: also called clone 14
Take B13: the binding result in test [1] is “binds”.

B14: Ad-ySUMO 18 (designed binder)
chain: NSLEIEELARFAVDEHNKKENALLEFVRVVKAKEQWIDRGQYWDTMYYLTLEAKDGGKKKLYEAKVWVKIHNGYTIMDNFKELQEFKPVGDA
notes: also called clone 18
With B14, the binding result in test [1] is “binds”.

B15: OSA-IΔD86 (other)
chain: MSSDGGPVLGGVEPVGNENDLHLVDLARFAVTEHNKKANSLLEFEKLVSVKQQVVAGTLYYFTIEVKEGDAKKLYEAKVWEKPWMFKELQEFKPVDASANARGSHHHHHH
notes: also called OSA1ΔD86; modified oryzacystatin lacking residue Asp86
Molecule B15 had a Ka in test [2] of 2.1e+08 M⁻¹. Moreover, in test [5], the “IC50, papain inhibition assay with pGlu-Phe-Leu-p-nitroanilide” value was 1.8e-07 M.

B16: Ad-ySUMO 6 (designed binder)
chain: NSLEIEELARFAVDEHNKKENALLEFVRVVKAKEQIDLTEWQDRTMYYLTLEAKDGGKKKLYEAKVWVKPEPIHSHHSNFKELQEFKPVGDA
notes: also called clone 6
For the molecule B16, in test [1], the binding result is listed as “binds”.

B17: Ad-ySUMO 7 (designed binder)
chain: NSLEIEELARFAVDEHNKKENALLEFVRVVKAKEQWVDMDYYWRTMYYLTLEAKDGGKKKLYEAKVWVKMDEIWAEYANFKELQEFKPVGDA
notes: also called clone 7
In the case of B17, the binding result in test [1] is listed as “binds”.

B18: Ad-ySUMO 8 (designed binder)
chain: NSLEIEELARFAVDEHNKKENALLEFVRVVKAKEQIDLTQTEIVTMYYLTLEAKDGGKKKLYEAKVWVKEPGIIPIVHNFKELQEFKPVGDA
notes: also called clone 8
With B18, the binding result in test [1] was “binds”.

B19: Ad-ySUMO 4 (designed binder)
chain: NSLEIEELARFAVDEHNKKENALLEFVRVVKAKEQIDLTHSLNYTMYYLTLEAKDGGKKKLYEAKVWVKGLTNEIQKMNFKELQEFKPVGDA
notes: also called clone 4
Regarding B19, the binding result in test [1] is listed as “binds”.

B20: Ad-ySUMO 5 (designed binder)
chain: NSLEIEELARFAVDEHNKKENALLEFVRVVKAKEQIDLTHSLNYTMYYLTLEAKDGGKKKLYEAKVWVKGLTNEIQKMNFKELQEFKPVGDA
notes: also called clone 5
As for B20, the binding result in test [1] is recorded as “binds”.

B21: Ad-ySUMO 12 (designed binder)
chain: NSLEIEELARFAVDEHNKKENALLEFVRVVKAKEQWYERSENWDTMYYLTLEAKDGGKKKLYEAKVWVKRDYGFTLVPNFKELQEFKPVGDA
notes: also called clone 12
Turning to B21, the binding result in test [1] is recorded as “binds”.

B22: PHYTC57 (designed binder)
chain: MAALLGGVRAVPGNENSLEIEELARFAVDEHNKKENALLEFVRVVKAKEQVVAGTMYYLTLEAKDGGKKKLYEAKVWVKPWETFKELQEFKPVGDARGSHHHHHH
notes: also called consensus phytocystatin; consensus cystatin
For B22, in test [2], the Ka came to 1.6e+11 M⁻¹, the dissociation constant (Kd) is 0.0063 nM and the on-rate constant (kon) was determined as 350000 M⁻¹ s⁻¹. The “IC50, papain inhibition assay with pGlu-Phe-Leu-p-nitroanilide” value in test [5] is 4.6e-08 M.

B23: Ad-ySUMO 9 (designed binder)
chain: NSLEIEELARFAVDEHNKKENALLEFVRVVKAKEQIDLTDVWIDTMYYLTLEAKDGGKKKLYEAKVWVKGLMTQTNSMNFKELQEFKPVGDA
notes: also called clone 9
Consider B23, for which, in test [1], the binding result is given as “binds”.

B24: Ad-ySUMO 13 (designed binder)
chain: NSLEIEELARFAVDEHNKKENALLEFVRVVKAKEQWDLTTPINITMYYLTLEAKDGGKKKLYEAKVWVKYEDYQTPMYNFKELQEFKPVGDA
notes: also called clone 13
As to B24, in test [1], the binding result is reported as “binds”.
